Consider four substances from article PMC3747585.

Experiment [1] has as its target CspA (full-length CspA^26–251) from Borrelia burgdorferi (Borrelia burgdorferi). Put plainly: ELISA. For orientation: ELISA stands for enzyme-linked immunosorbent assay.
For experiment [2], the target named is NT-647-labeled human C9 (human) (UniProt P02748). Nature of the experiment: MST.
Experiment [3] concerns the target NT-647-labeled human C7 (human) (UniProt P10643). Nature of the experiment: MST.

Sequence of factor H (P08603 19-1231): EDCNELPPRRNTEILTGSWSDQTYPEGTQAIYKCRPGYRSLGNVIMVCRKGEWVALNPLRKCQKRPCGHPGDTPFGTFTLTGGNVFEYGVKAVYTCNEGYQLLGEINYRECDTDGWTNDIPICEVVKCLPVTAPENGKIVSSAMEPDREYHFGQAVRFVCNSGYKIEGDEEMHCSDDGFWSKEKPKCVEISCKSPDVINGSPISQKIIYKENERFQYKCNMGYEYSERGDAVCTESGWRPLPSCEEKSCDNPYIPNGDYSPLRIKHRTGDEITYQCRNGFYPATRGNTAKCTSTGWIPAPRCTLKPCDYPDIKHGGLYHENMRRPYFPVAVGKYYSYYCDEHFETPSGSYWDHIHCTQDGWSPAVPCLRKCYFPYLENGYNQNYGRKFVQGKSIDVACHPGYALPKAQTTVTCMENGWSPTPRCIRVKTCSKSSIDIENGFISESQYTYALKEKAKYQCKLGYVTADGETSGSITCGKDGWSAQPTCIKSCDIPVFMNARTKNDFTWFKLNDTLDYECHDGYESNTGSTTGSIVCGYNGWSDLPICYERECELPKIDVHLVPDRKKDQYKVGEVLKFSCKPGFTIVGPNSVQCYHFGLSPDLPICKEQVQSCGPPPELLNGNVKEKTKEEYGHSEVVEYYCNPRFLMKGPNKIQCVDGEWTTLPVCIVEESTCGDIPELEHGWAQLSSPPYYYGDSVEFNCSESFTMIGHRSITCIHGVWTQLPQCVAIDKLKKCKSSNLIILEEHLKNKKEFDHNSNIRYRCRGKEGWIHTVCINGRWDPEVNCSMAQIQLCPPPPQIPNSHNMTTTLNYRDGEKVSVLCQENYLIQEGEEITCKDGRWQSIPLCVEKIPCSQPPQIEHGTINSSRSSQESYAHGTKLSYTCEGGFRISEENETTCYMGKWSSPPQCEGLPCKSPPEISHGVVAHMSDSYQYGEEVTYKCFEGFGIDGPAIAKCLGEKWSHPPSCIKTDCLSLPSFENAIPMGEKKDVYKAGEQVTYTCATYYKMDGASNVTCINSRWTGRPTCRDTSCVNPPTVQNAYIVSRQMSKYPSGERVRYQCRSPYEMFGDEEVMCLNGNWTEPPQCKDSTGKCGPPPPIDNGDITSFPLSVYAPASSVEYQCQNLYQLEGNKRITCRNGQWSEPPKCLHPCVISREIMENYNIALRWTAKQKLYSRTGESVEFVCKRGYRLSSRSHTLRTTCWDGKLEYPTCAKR

In experiment [1], “human terminal complement component C7 (from UniProt P10643 23-843) (natural protein)” displayed a percent reduction of binding by NaCl at 0.15 M of 60% and a percent reduction of binding by heparin at 500 µg/ml of 42%.
With “factor H (from UniProt P08603 19-1231) (natural protein)”, in experiment [1], the percent reduction of C7 binding to CspA by factor H at 5 µg/ml was 17% and the percent reduction of C9 binding to CspA by factor H at 5 µg/ml is 23%.
“human terminal complement component C9 (from UniProt P02748 22-559) (natural protein)” returned a percent inhibition of binding by NaCl at 0.15 M in experiment [1] of 35%.
“CspA (full-length CspA^26–251) from Borrelia burgdorferi (natural protein)”: the Kd in experiment [2] is 3.4 µM; in experiment [3] it was 5.1 µM.

The term Kd denotes the concentration at which binding is half-saturated.
